# Results reported in patent US6858210B1, “Therapeutic and diagnostic domain 1 β2GPI polypeptides and methods of using same” (La Jolla Pharmaceutical Co., priority 1998, dated 2005).
# Read-outs that look alike come from different tables or passages of the source.
# B1: recombinant β2GPI domain 5 with GlyHis6 (----5) (protein)
# chain: GRASCKLPVKKATVVYQGERVKIQEKFKNGMLHGDKVSFFCKNKEKKCSYTEDAQCIDGTIEVPKCFKEHSSLAFWKTDASDVKPCGHHHHHH
# B2: 1----: recombinant β2GPI protein with domain 1 only (SEQ ID NO:4 region), His6 tail (protein)
# chain: GRTCPKPDDLPFSTVVPLKTFYEPGEEITYSCKPGYVSRGGMRKFICPLTGLWPINTLKCTPRVGHHHHHH
# B3: 12345: recombinant full length human β2GPI (domains 1-5) with C-terminal GlyHis6, baculovirus expressed (protein)
# chain: GRTCPKPDDLPFSTVVPLKTFYEPGEEITYSCKPGYVSRGGMRKFICPLTGLWPINTLKCTPRVCPFAGILENGAVRYTTFEYPNTISFSCNTGFYLNGADSAKCTEEGKWSPELPVCAPIICPPPSIPTFATLRVYKPSAGNNSLYRDTAVFECLPQHAMFGNDTITCTTHGNWTKLPECREVKCPFPSRPDNGFVNYPAKPTLYYKDKATFGCHDGYSLDGPEEIECTKLGNWSAMPSCKASCKLPVKKATVVYQGERVKIQEKFKNGMLHGDKVSFFCKNKEKKCSYTEDAQCIDGTIEVPKCFKEHSSLAFWKTDASDVKPCGHHHHHH
# Legend:
# [1] = target: affinity purified β2GPI-dependent antiphospholipid antibody from patient 7008; experiment: comp. inhibition ELISA
# [2] = target: affinity purified β2GPI-dependent antiphospholipid antibody preparation 6641 (from patient 6641); experiment: comp. inhibition ELISA
# [3] = target: β2GPI-dependent antiphospholipid antibody from patient 6501; experiment: comp. inhibition ELISA
# [4] = target: β2GPI-dependent antiphospholipid antibody from patient 6626; experiment: comp. inhibition ELISA
# [5] = target: affinity purified β2-GPI domain 1 specific antibodies from patients 6701 and 6626; experiment: Surface plasmon resonance Kd determination on immobilized antibodies; format: binding, human; settings: read-out: Apparent equilibrium dissociation constant
# Experimental: Reagents. CM5 chips, NHS and EDC and HBS-EP buffer were from BIAcore. Human pooled normal IgG (Zymed) was immobilized in a separate flow cell on the chip and used as a negative control. Affinity purified 2-GPI domain 1 specific antibodies from 2 patients (6701 and 6626) were immobilized in separate flow cells.
# Surface Plasmon Resonance. All experiments were done on a BIAcore™ 2000 instrument at 25° C. with a flow rate of 10 μL/minute. Chip equilibration and binding studies were performed with degassed HBS-EP buffer, which consists of 0.01 M HEPES pH 7.4, 0.15 M NaCl, 3 mM EDTA and 0.005% (v/v) surfactant β20. […]
# Titrations. […] Since the approach to binding equilibrium was incomplete during the measurement period, the equilibrium binding value (Req) was determined by fitting the association curves to the following equation using the manufacturer software (BiaEvaluation version 2.2, Uppsala, Sweden)): Rt=Req(1−e^−ks(t−t0))+R0 where Rt is the measured BIAcore response at time t, Req is the equilibrium plateau response, t is time, t0 is initial time, ks is an apparent association constant (ks=kaC+kdis where ka is the association constant, C is the analyte concentration and kdis is the dissociation constant), and R0 is a response offset, (Marquart-Levenberg algorithm). […]
# [6] = test system: antiphospholipid antibody in plasma from patient 6501; experiment: Competitive antibody binding ELISA with patient plasma on β2GPI coated plates; set-up: species or system human; settings: plasma patient 6501, 1:200
# Experimental: Nunc Maxisorp microplates (Nalge Nunc International, Denmark) were coated with 100 μL/well of β2GPI at 2.5 μg/mL in PBS, incubated for 2 hours at room temperature, and blocked for 2 hours at room temperature with 250 μl/well of 2% nonfat milk with […] (Sigma Chemical Co.). […] After incubation for one hour at room temperature the plates were washed 5× with TBS. To each well was added 100 μL of alkaline phosphatase-conjugated anti-human IgG, gamma chain specific (Zymed) diluted 1:1000 in 2% nonfat milk with 0.4% Tween-80. After one hour at room temperature the plates were washed 5× with TBS. To each well was added 100 μl PPMP chromogenic substrate solution for color development at room temperature. Optical absorbance per well was determined at A550nm in a commercial microplate reader (Bio-Tek Instruments EL3 11).
# [7] = test system: affinity purified β2GPI-dependent antiphospholipid antibody; experiment: Cardiolipin based ELISA, recombinant β2GPI proteins bound to cardiolipin coated wells; format: binding, human; settings: cardiolipin coated plates
# Experimental: Microtiter plates (Immulon 1 #3350 from Dynex Technologies) were coated with 30 μl of a 50 μg/ml solution of cardiolipin in ethanol, dried overnight at 4° C., washed three times with PBS, pH 7.2, and blocked for one hour at room temperature with 75 μl of 5% (wt/v) fish gelatin, (Hipure Liquid Gelatin, Norland Products Inc. 695 Joyce Kilmer Ave., New Brunswick N.J., USA). The plates were washed three times with PBS, charged with 50 μl of full length recombinant β2GPI at 10 μg/ml in 5% fish gelatin and incubated at 37° C. for one hour. […] The optical density, at 550 nm, was determined by reading the plates in a microplate autoreader (Bio-Teck Instruments, model EL311).
# Seven different recombinant β2GPI mutant proteins were examined to determine if they could support the direct binding of affinity purified β2GPI-dependent antiphospholipid antibody preparations in the presence of anionic phospholipid. All seven recombinant mutant β2GPI were assayed with rabbit anti-β2GPI and with an affinity purified β2GPI-dependent antiphospholipid antibody preparation. Each mutant recombinant β2GPI protein was tested, in a dose dependent fashion and GST-6his was included as a negative control. The recombinant mutant β2GPI proteins were bound to microtiter plates that had previously been coated with cardiolipin. […]
molecule,measurement,setting,value
B1,IC50,[1],> 47 µM
same,Max inhibition,[1],20%
same,IC50,[2],> 47 µM
same,Max inhibition,[2],10%
same,IC50,[3],> 47 µM
same,Max inhibition,[3],10%
same,IC50,[4],> 47 µM
same,Max inhibition,[4],10%
B2,Kd,[5]; immobilized antibody from patient 6626,0.333 ± 0.018 µM
same,Kd,[5]; immobilized antibody from patient 6701,0.417 ± 0.036 µM
same,competition for antiphospholipid antibody binding to β2GPI,[6],Competitive binding is also exhibited
B3,direct binding of patient antibody,[7],readily detected
